Key:
Human active TGFβ1 = biological target: T1, Human active TGFβ1 (human, UniProt P01137 279-390); experiment: blocking of active TGFβ1 (1 ng/mL) in solution, 30 min in PBS; free TGFβ1 by ELISA
T1 construct: mature; also called TGFB1
Description: TGFβ causes a wide range of immune suppression in several immune cell types including inhibition of crucial early innate IFN responses.

active TGFβ3 = active TGFβ3 (UniProt P10600); experiment: blocking of active TGFβ3 (1 ng/mL) in solution, 30 min in PBS; free TGFβ3 by ELISA
active TGFβ3, sequence (P10600 301-412): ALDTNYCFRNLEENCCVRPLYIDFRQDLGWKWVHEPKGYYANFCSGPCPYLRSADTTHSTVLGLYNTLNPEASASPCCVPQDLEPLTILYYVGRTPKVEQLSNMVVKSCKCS

T1 sequence (P01137 279-390 limits assumed): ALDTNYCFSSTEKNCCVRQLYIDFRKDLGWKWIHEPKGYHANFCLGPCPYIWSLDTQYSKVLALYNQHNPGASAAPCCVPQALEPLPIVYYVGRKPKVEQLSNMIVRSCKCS

FIST (monovalent FIST; IL2-sTBRII)
IC50 (Human active TGFβ1): 1.29 nM | IC50 (active TGFβ3): 3.6 nM

B1: TβRII isoform 2 (receptor, UniProt P37173-2 24-184, looked up)
chain: IPPHVQKSDVEMEAQKDEIICPSCNRTAHPLRHINNDMIVTDNNGAVKFPQLCKFCDVRFSTCDNQKSCMSNCSITSICEKPQEVCVAVWRKNDENITLETVCHDPKLPYHDFILEDAASPKCIMKEKKKPGETFFMCSCSSDECNDNIIFSEEYNTSNPD
notes: also called TβRll (isoform II); control (TβRII isoform 2)
IC50 (Human active TGFβ1): 0.02 nM
